Experimental data published in paper PMC3817407.

T1: ECF33_375
T1 chain: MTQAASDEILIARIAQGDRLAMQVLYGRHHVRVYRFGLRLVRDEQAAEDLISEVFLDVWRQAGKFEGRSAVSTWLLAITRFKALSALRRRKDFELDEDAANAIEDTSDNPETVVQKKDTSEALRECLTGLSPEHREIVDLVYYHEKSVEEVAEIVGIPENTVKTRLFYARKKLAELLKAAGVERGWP

T2: ECF22_4450
T2 chain: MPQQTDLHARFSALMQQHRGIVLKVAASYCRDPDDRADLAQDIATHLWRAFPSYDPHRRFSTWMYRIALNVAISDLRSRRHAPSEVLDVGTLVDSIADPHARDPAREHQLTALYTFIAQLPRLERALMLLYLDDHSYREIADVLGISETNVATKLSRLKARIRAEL

T3: ECF38_1322
T3 chain: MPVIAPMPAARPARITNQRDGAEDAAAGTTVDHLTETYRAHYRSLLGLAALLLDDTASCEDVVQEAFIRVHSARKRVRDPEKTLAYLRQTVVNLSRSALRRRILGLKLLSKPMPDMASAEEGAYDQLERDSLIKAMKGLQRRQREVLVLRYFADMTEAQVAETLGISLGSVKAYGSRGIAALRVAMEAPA

T4: ECF14_3200
T4 chain: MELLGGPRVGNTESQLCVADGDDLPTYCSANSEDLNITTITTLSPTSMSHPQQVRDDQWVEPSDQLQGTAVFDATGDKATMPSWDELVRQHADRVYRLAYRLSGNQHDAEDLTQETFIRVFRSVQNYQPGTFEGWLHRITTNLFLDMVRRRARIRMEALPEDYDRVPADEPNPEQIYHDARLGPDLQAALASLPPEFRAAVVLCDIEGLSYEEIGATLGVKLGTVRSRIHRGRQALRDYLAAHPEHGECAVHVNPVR

T5: ECF15_524
T5 chain: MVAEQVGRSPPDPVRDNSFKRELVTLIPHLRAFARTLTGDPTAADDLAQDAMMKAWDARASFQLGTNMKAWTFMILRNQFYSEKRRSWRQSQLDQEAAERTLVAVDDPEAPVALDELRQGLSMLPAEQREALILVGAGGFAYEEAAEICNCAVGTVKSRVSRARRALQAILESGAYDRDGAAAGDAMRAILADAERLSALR

B1: AS37_2513 (protein)
chain: MSSAPATKEEVDFALKVRRALDERAASLPDATTDRLAAARRAALARKKPDAAIVLVPALAGSAGTLELRPPGEPRKSLARRLARAWPLALLLAGLIGIAYWEDMQRTAELADIDAAMLSDNLPLTAYLDHGFNAYLSHTH
B2: AS38_1322 (protein)
chain: MSDGNDARPDARDGHDPGSDARDGHDPGSHARDGHDPGAGPFDGHGPGSDAGDGDDAGPDARDGHGAPAGPAGREQRKHPHDTHDMHDTHDTHAGKGTVNHGPAAQGPDAPGADGPATDEAALRAMMQRAVREMEPSDGTLEHLRRAVPARRARKRQALVGAAAAALFLGTAVPALVHVSNATGAGADPSVAGNASQAQGGASQGKDPAGGQSGVAGTGDTPEDRDKADPKETPGGKEPGAATGAPPSGVPSASSPADVPACAPGSLGPAVASSAEPDSTGVVYGSFRVTNVSSDGCTVTGPGTVVTASLGAAEATRIGTARHAAGDAAAGLPDPSLETASLALAPGAAYEVQFAWVPSETCPTTGGTTGGGSGGPSPDPSPTADTTAAGGTSAGGGEAGPTTQLITEDGPAEGSVSVTYTPEGGSGSATATVSNACAGTVYWTGLLADSGSGA

Legend:
ECF33_375 = target: T1, ECF33_375
ECF22_4450 = target: T2, ECF22_4450
ECF38_1322 = target: T3, ECF38_1322
ECF14_3200 = target: T4, ECF14_3200
ECF15_524 = target: T5, ECF15_524

Binder	fold repression (ECF33_375)	fold repression (ECF22_4450)	fold repression (ECF38_1322)	fold repression (ECF14_3200)	fold repression (ECF15_524)
B1	2.48	7.22	2.73	11.4	4.06
B2	3.13	6.3	54.2	8.3	4.95
